Source: patent US20250179161A1

Biological target: Amyloid Beta (Aβ) 1-42 (human)
Assay: cell-based or functional assay

Chain of Amyloid Beta (Aβ) 1-42 (human) (peptide, as listed by the source): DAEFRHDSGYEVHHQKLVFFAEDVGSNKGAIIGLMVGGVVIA

Substance: human IgG isotype control antibody
- Avg. pg/mL Aβ1-42 left after ex vivo phagocytosis, APP/PS1 mouse brain sections with primary murine microglia, mean: 92600 pg/mL
- Aβ1-42 (pg/ml) left after ex vivo phagocytosis, human AD brain sections with primary murine microglia: 185000 pg/mL
- Mean (Aβ spots per neuron), isotype control at 1:50 mAb:Aβ42, soluble Aβ 1 µM, rat hippocampal neurons (Aβ spots per neuron): 58.7
